From the supplement of paper PMC7877785
± gives the uncertainty stated by the source.

Assay: self-splicing fitness, log relative to wild type (ln ratio); higher = more splicing; Tetrahymena group I intron in knt gene, E. coli kanamycin selection, DiMSum; sequences stand for … in CUCUCU…GGAGGGAAAAGUUAUCAGGCAUGCACCUGGUAGCUAGUCUUUAAACCAAUAGAUUGCAUCGGUUUAAAAGGCAAGACCGUCAAAUUGCGGGAAAGGGGUCAACAGCCGUUCAGUACCAAGUCUCAGGGGAAACUUUGAGAUGGCCUUGCAAAGGGUAUGGUAAUAAGCUGACGGACAUGGUCCUAACCACGCAGCCAAGUCCUAAGUCAACAGAUCUUCUGUUGAUAUGGAUGCAGUUCACAGACUAAAUGUCGGUCGGGGAAGAUGUAUUCUUCUCAUAAGAUAUAGUCGGACCUCUCCUUAAUGGGAGCUAGCGGAUGAAGUGAUGCAACACUGGAGCCGCUGGGAACUAAUUUGUAUGCGAAAGUAUAUUGAUUAGUUUUGGAGUACUCGUGGUCG
Summary of the method: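 Library with all eight P1ex-region intron nucleotides randomised, intron inside the knt kanamycin-resistance gene on pET-22b(+), in E. coli BL21(DE3). Cells grew overnight at 37°C or 30°C on LB agar with or without 25 μg/mL kanamycin (plus 100 μg/mL carbenicillin, 50 μM IPTG, 0.2% rhamnose), in six replicate transformations. Pooled colonies were amplicon-sequenced on Illumina HiSeq 2500. DiMSum fitness is the error-weighted combination of wild-type-normalised replicate fold changes, kanamycin versus none.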

| Sequence | self-splicing fitness (ln) (30 °C) | self-splicing fitness (ln) (37 °C) |
| --- | --- | --- |
| AGGAAGCAAUAUUACGCGCC | -1.61 ± 0.29 | -0.761 ± 0.27 |
| ACACAGCAAUAUUACGUUUU | -3.42 ± 0.11 | -2.57 ± 0.14 |
| ACAGAGCAAUAUUACGCAGG | -4.02 ± 0.18 | -2.59 ± 0.17 |
| AGCUAGCAAUAUUACGAGCC | -3.51 ± 0.32 | -2.5 ± 0.49 |
| CUGUAGCAAUAUUACGAGAC | -2.77 ± 0.2 | -0.769 ± 0.14 |
| CAUGAGCAAUAUUACGGGCC |  | -1.98 ± 0.36 |
| ACACAGCAAUAUUACGUAAA | -3.49 ± 0.15 | -1.2 ± 0.12 |
| UGGUAGCAAUAUUACGCCAA | -1.77 ± 0.15 | -0.723 ± 0.12 |
| UGCUAGCAAUAUUACGGAUC |  | -0.421 ± 0.19 |
| GUGUAGCAAUAUUACGGGUA | -2.39 ± 0.2 | -2.42 ± 0.16 |
| GAGAAGCAAUAUUACGACUU | -1.9 ± 0.14 | -1.14 ± 0.14 |
| CAGUAGCAAUAUUACGACUA | 0.402 ± 0.089 | 0.675 ± 0.11 |
| CUACAGCAAUAUUACGUACG | -0.289 ± 0.088 | 0.18 ± 0.099 |
| GCAUAGCAAUAUUACGUCGC | -1.2 ± 0.28 | -2.32 ± 0.45 |
| AAGUAGCAAUAUUACGGUCU | -0.291 ± 0.062 | -0.0526 ± 0.086 |
| CACCAGCAAUAUUACGUCUG | -1.55 ± 0.056 | -0.504 ± 0.07 |
| UGCCAGCAAUAUUACGUGCC | -1.03 ± 0.095 | 0.0809 ± 0.15 |
| CCGUAGCAAUAUUACGUGGU | -4.27 ± 0.24 | -2.12 ± 0.14 |
| UUGUAGCAAUAUUACGCGAG | -1.17 ± 0.11 | -0.735 ± 0.099 |
| UUAUAGCAAUAUUACGAGGA | -2.68 ± 0.3 | -1.01 ± 0.23 |

| Sequence | self-splicing fitness (ln) (30 °C) | self-splicing fitness (ln) (37 °C) |
| --- | --- | --- |
| UCGGAGCAAUAUUACGCGUA | -1.73 ± 0.26 | -1.38 ± 0.21 |
| AGUAAGCAAUAUUACGACUG | -1.45 ± 0.12 | 0.23 ± 0.15 |
| CUGUAGCAAUAUUACGGGAU | -3.16 ± 0.26 | -2.28 ± 0.23 |
| CUGGAGCAAUAUUACGGAUU | -3.29 ± 0.43 | -2.83 ± 0.34 |
| CGCUAGCAAUAUUACGGUCC | -1.48 ± 0.12 | -0.153 ± 0.15 |
| UGAAAGCAAUAUUACGCUUU | -4.77 ± 0.28 | -2.53 ± 0.26 |
| UCUAAGCAAUAUUACGCGCC |  | -2.67 ± 0.38 |
| UAAGAGCAAUAUUACGAUUG | -1.72 ± 0.11 | -0.83 ± 0.12 |
| UCCUAGCAAUAUUACGUCUG | -4.52 ± 0.41 | -3.05 ± 0.21 |
| ACCGAGCAAUAUUACGACAG | -2.88 ± 0.17 | -2.41 ± 0.39 |
| UUCAAGCAAUAUUACGUCGU | -2.69 ± 0.15 | -1.44 ± 0.14 |
| GGCUAGCAAUAUUACGUAAU | -0.265 ± 0.1 | 0.283 ± 0.12 |
| UAACAGCAAUAUUACGCGUA | -0.931 ± 0.063 | -0.365 ± 0.067 |
| UUCAAGCAAUAUUACGAGAG | -1.5 ± 0.11 | -1.34 ± 0.11 |
| AUACAGCAAUAUUACGGUUG | -2.35 ± 0.097 | -0.364 ± 0.093 |
| AAGCAGCAAUAUUACGAUCG | -2.29 ± 0.14 | -0.905 ± 0.12 |
| CCUAAGCAAUAUUACGCUCG |  | -2.15 ± 0.3 |
| UUCCAGCAAUAUUACGUCGC | -1.69 ± 0.32 | -1.23 ± 0.45 |
| AGUCAGCAAUAUUACGAAAA | -1.63 ± 0.17 | -1.3 ± 0.2 |
